Test results as given in patent US7001748.

How the values were obtained:
[1] = biological target: M2(4) (derivative of M2 containing the C-terminal linker of DEBS module 4; plasmid pST179) (UniProt Q03133); assay: fit of the rate of tetraketide formation against (5)M3+TE concentration (0.5-5 µM) at fixed 0.5 µM M2(4); kinetic saturation curve
[2] = biological target: M2 (module 2 of DEBS with the natural C-terminal linker for module 2; plasmid pBP19) (UniProt Q03133); assay: fit of the rate of tetraketide formation against M3+TE concentration (0.4-4 µM) at fixed 1.0 µM M2; kinetic saturation curve
[3] = biological target: (5)M5+TE (M5+TE; plasmid pRSG46) (UniProt Q03133); assay: cell-based or functional assay

Q: How did the Kd [1] turn out when “(5)M3+TE (derivative of M3+TE where the natural N-terminal linker has been replaced with the N-terminal linker of module 5 of DEBS; plasmid pST132) (from UniProt Q03133 2-41; Q03132 33-1467; Q03133 2960-3166) (enzyme)” was run?
A: 2.1 µM

Q: With “M3+TE (module 3 of DEBS with its own N-terminal linker and with the thioesterase fused to the C-terminus; plasmid pRSG34) (from UniProt Q03132 33-1467; Q03133 2960-3166) (enzyme)” as the substance, how does the Kd [2] read?
A: 1.1 µM

Q: Which maximal rate increase in the elongation of 4a versus 2a [3] does the source give for “acyl-ACP4(4) adduct 4a ((2S,3R)-diketide on ACP4(4)) (from UniProt Q03132 3398-3567)” here?
A: > 40 fold
